The nature of this data set: soluble on expression in E. coli; label from the status in PepcDB or PDB records.
Regarding “MGSDKIHHHHHHMNEIRVSSWPALHEVLYGESWNPRLGRFRSPFVFRGQSRAEAKLTTTLQRLSGETREIERHLLRNFRKYAYRNGMDRDLPWYWLAVGQHHGLPTRLLDWTTSPLVALHFATAEEDHYSQDGVVWMVNFIRTNERLPAPLKALLEQEGADVFTVDMLTAFSRAHRSQQMPELGQQPSFDLSWLEDLEREAEHPFLLFLEPPSIDERIVQQAALFSLLSDPEAALDDWLVQHPGTAHKVILPADLKWEIRDKLDQSNITERTLFPGLGGLSQALRRYYRVGRDPSQQQGATAEEQAQEMERQN”, the “soluble on expression in E. coli” value is “not soluble”. As for “ESSVNPVVLDFEDGTVMSFGEAWGDSLKCIKKVSVSQDLQRPGNKYALRLDVEFNPNNGWDQGDLGTWIGGVVEGQFDFTGYKSVEFEMFIPYDEFSKSQGGFAYKVVINDGWKELGSEFNITANAGKKVKINGKDYTVIHKAFAIPEDFRTKKRAQLVFQFAGQNSNYKGPIYLDNVRIRPEDA”, the “soluble on expression in E. coli” value was “soluble”.

Consider “MYCHAKLKNISQHTVISAHLFLPDYSPMNRDSFYPAIACFPLLLMLAGCAPMHETRQALSQQTPAAQVDTALPTALKMVGQTANGGWSITIINSLPLEHHHHHH”, for which the “soluble on expression in E. coli” value was “not soluble”. For “MFPEQQKEEFVSVWVRDPRIQKEDFWHSYIDYEICIHTNSMCFTMKTSCVRRRYREFVWLRQRLQSNALLVQLPELPSKNLFFNMNNRQHVDQRRQGLEDFLRKVLQNALLLSDSSLHLFLQSHLNSEDIEACVSGQTKYSVEEAIHKFALMNRRFPEEEEEGKKDADVEYDSESSSSGLGHSSDDSSSHGCKTSPALQES”, the “soluble on expression in E. coli” value is given as “soluble”. “VSLEDYNLSEDLKVRLDSAEGIFVSGAPGSGKSTFVSALAERYKNMDKIVKTMESPRDLQVDEEITQYAPLEGSMEKTCDILLLVRPDYTIYDEVRKTKDFEIFADMRMAGVGMVGVVHASKAIDSIQRLIGRVELGIIPQIVDTVVFIENGKIGKVYEVEFNVKVPH”: the “soluble on expression in E. coli” value was “not soluble”. Under “MRRVMIPKPGGGERPLGIPTIRDRVVQAAAKIVLEPIFEADFEDGAYGYRPRRNAVDAVKEVHRLMCRGYTDVVDADLSKYFDTIPHSDLLKSVARRIVDRNVLRLIKLWLRVPVEERDSNGKRRMSGGKSNKCGTPQGGVMVPLEHHHHHH” stands “not soluble”. Under “MRVAVLGAGAWGTALAVLLASKGVPTRLWARRKAQAEALKAMRENRDYLPGVALPAYLYPTHDPEEALEGAELAVLAVPSKALRETVAGLPPAPWYVSATKGLFYGEEGVRTPAEVVEALTQRPVVALSGPNHAEEVARFLPTASVAAGPEDLARRVQALFSGPTFRVYTSRDRRGVELGGAVKNVLALAAGMVDGLRLGDNAKAALLTRGLKEMVRFGTALGGEEATFYGLAGLGDLLATAYSLHSRNRMAGESLVRGVDREALEARGVVEGLYAVKAMVAWGKEQGVELPVAEAVHRVAHEGLDPLAALKALMAREPKEE” stands “soluble”; under “MGSDKIHHHHHHMYRKDLDHYLKQRLPKAVFLYGEFDFFIHYYIQTISALFKCDNPDIETSLFYASDYEKSQIATLLEQDSLFGGSSLVVLKLDFALHKKFKENDINLFLKALERPSHNRLIIGLYNAKSDTTKYKYTSDAIVKFFQKSPLKDEAICARFFIPKTWESLKFLQERANFLHLDISGHLLNALFEINNEDLGVSFNDLDKLAVLNAPITLEDIQELSSNAGDMDLQKLILGLFLKKSALDIYDYLLKEGKKDADILRGLERYFYQLFLFFAHIKTTGLMDAKEVLGYAPPKEIAENYAKNALRLKEAGYKRVFEIFRLWHIQSMQGQKELGFLYLTSIQKIINP”, “not soluble”; under “MGSDKIHHHHHHMKLLYFKEHLSCINYQINVNTGFVYYNLEKDSVSKIDNSASPCILFLLDGEVSIDSGEYQNVHIEKDKMVLIPQHVDNKIEVIYDAKCLLLFWNKDIRVCDKVYMNSLSSYKERKKEMCVLPIRDPLQAVLNSVVAYLYAKMQCKHMHLIKQQEVLLVLRGYYTKKELFTFFSSILGNTGHFEDFVMNNYRKVKSVKEFAGLYCTSERSFNRKFQNCFKESPYQWMQKKKAELIREKISESDTPFQEIAMDFDFNSQAHFTSYCKRLFGMTPSKLRTESKKVAPDLEY”, “not soluble”. Regarding “MSLSPFEHPFLSGLFGDSEIIELFSAKADIDAMIRFETALAQAEAEASIFADDEAEAIVSGLSEFAADMSALRHGVAKDGVVVPELIRQMRAAVAGQAADKVHFGATSQDVIDTSLMLRLKMAAEIIATRLGHLIDTLGDLASRDGHKPLTGYTRMQAAIGITVADRAAGWIAPLERHLLRLETFAQNGFALQFGGAAGTLEKLGDNAGAVRADLAKRLGLADRPQWHNQRDGIAEFANLLSLVTGTLGKFGQDIALMAEIGSEIRLSGGGGSSAMPHKQNPVNAETLVTLARFNAVQISALHQSLVQEQERSGAGWMLEWLTLPQMVTATGTSLLVAERLAAQIDRLGADESHHHHHH”, the “soluble on expression in E. coli” value is given as “soluble”.

Consider “GPGSMLAASRLARGVAETVTRENFTISRLTNGLRVITCEDGNGITGMGLFSLNGPKFEEEGSFGAAAVMESLPLRSNTRMTTETISQSLGVFGNAYKVTNNREAMSVMLMMPRYHRKEGLDVLNGMWLHPTDNDEEFAVAKAQTLHRSSLMSRDATSMLFELVHKAGWSGRGLGNPLSPTEQQLEQLTLERFHAFHRRYTTPERTVLAATGVADHKTFVQEAEVRLQFPQATAPSLHSSSAETANKAAAATAQLHPYTGGCEYVQNTMAPESMNKFQEKNLSHIALFFQAIPMAHPDYFTFSVIQTLLGGGTSFSSGGPGKGMQTKLFREVLNREPNVHGMECITAWYSDGGLIGLYGSAPHEHVNNLLKIIIFQAASISQRVTPVHVEMAKNQLSSQLILLGEGREQLLNDMGFNLLVHNYTITPQETIQGSAQVTMARLHEVCAQLIEHPITFAVYGETKGMPEYRELVQALKKSYASLSKSTPA”, for which the “soluble on expression in E. coli” value was “not soluble”. “ILVKNLPQDSNCQEVHDLLKDYDLKYCYVDRNKRTAFVTLLNGEQAQNAIQMFHQYSFRGKDLIVQLQPTDALLC”: the “soluble on expression in E. coli” value was “soluble”. As for “MSHHHHHHSQGGPQDHVEIIPLGGMGEIGKNITVFRFRDEIFVLDGGLAFPEEGMPGVDLLIPRVDYLIEHRHKIKAWVLTHGHEDHIGGLPFLLPMIFGKESPVPIYGARLTLGLLRGKLEEFGLRPGAFNLKEISPDDRIQVGRYFTLDLFRMTHSIPDNSGVVIRTPIGTIVHTGDFKLDPTPIDGKVSHLAKVAQAGAEGVLLLIADATNAERPGYTPSEMEIAKELDRVIGRAPGRVFVTTFASHIHRIQSVIWAAEKYGRKVAMEGRSMLKFSRIALELGYLKVKDRLYTLEEVKDLPDHQVLILATGSQGQPMSVLHRLAFEGHAKMAIKPGDTVILSSSPIPGNEEAVNRVINRLYALGAYVLYPPTYKVHASGHASQEELKLILNLTTPRFFLPWHGEVRHQMNFKWLAESMSRPPEKTLIGENGAVYRLTRETFEKVGEVPHGVLYVDGLGVGDITEEILADRRHMAEEGLVVITALAGEDPVVEVVSRGFVKAGERLLGEVRRMALEALKNGVREKKPLERIRDDIYYPVKKFLKKATGRDPMILPVVIEG”, the “soluble on expression in E. coli” value was “soluble”.

Consider “MTLEKFVDALPIPDTLKPVQQSKEKTYYEVTMEECTHQLHRDLPPTRLWGYNGLFPGPTIEVKRNENVYVKWMNNLPSTHFLPIDHTIHHSDSQHEEPEVKTVVHLHGGVTPDDSDGYPEAWFSKDFEQTGPYFKREVYHYPNQQRGAILWYHDHAMALTRLNVYAGLVGAYIIHDPKEKRLKLPSDEYDVPLLITDRTINEDGSLFYPSAPENPSPSLPNPSIVPAFCGETILVNGKVWPYLEVEPRKYRFRVINASNTRTYNLSLDNGGDFIQIGSDGGLLPRSVKLNSFSLAPAERYDIIIDFTAYEGESIILANSAGCGGDVNPETDANIMQFRVTKPLAQKDESRKPKYLASYPSVQHERIQNIRTLKLAGTQDEYGRPVLLLNNKRWHDPVTETPKVGTTEIWSIINPTRGTHPIHLHLVSFRVLDRRPFDIARYQESGELSYTGPAVPPPPSEKGWKDTIQAHAGEVLRIAATFGPYSGRYVWHCHILEHEDYDMMRPMDITDPHK”, for which the “soluble on expression in E. coli” value is given as “soluble”. The value for “MGSDKIHHHHHHMEDILKYLQVHVPFRMLEGGFLDTVIAKGISPEIGFDCAILDATGKDRFREVADRFSDAGLRVTFHAPFMDLRPGAIDPRIREVSRERIQQVFDLVPLFRPRTIVCHPSFDSRYYVSSERKWLENSTLTWSTFVEQAAEFDTLLLLENVYEKEPRQFVHLLTALDSLRVRFCLDTGHCNAFSDAPLSSWLEELGTFLGEVHLHDNDGSRDAHLPIGEGNFPFMELFGFLKTKVNRPILTLEAHSADHLSRTLETLRKNRLFGLI” was “not soluble”; that for “MAKRPTETERCIESLIAIFQKHAGRDGNNTKISKTEFLIFMNTELAAFTQNQKDPGVLDRMMKKLDLDSDGQLDFQEFLNLIGGLAIACHDSFIKSTQK” was “soluble”. For “MSLGRIYRGVEVGDVALGGKTPEEAREIVLRRAEGALERVELRGGPEGEISFDARRMGIDYKVRETVQAAYAVGREGNLLERLGERLRAAYGTVQIEPRVDYRPSVARQRIEEVASRLDRPPRQAEVNVYGSEVDVVGSREGYRVDVEATMRSVGEAVEDMSGEARLVGRVLEPEYTTAEAERAAERARRALDGELVLTYEGRRWTVSPAAIGDSLDITARDGEFRVGVDRDRLRENLSGVYAAINQEPVEAGYEISGEQITVTPSRTGRAIQDEKLLGAIEEGIFEGRREYRIPVAVDRPELTTAEAERLKPTDLLATYQTNYLTYDDSPGRVENLEIASEAVDGTLLAPGEVFSFNELAAPLDYHDTKVIINGRVDTAEGGGLCQVSSTLYMAANLAGLDVIERHPHYAELPYIRPGFDATVWFGALDMKFKNTSPGYILIREWVDRSTGTVNAAIYGRPSGIEVDMRSEKVSETVDEEGNPVTTWITYQTVRKNGEVVFDGVLHKDVYKYLKPAAPDAEGHHHHHH”, the “soluble on expression in E. coli” value is “soluble”.

Consider “MQNDAGQTVELYVPRKCSSSNRIIGPKDHASVQIDFVDVDPETGRMIPGKSTRYAICGAIRRMGESDDAILRLAQKDGLVPRDDVKSN”, for which the “soluble on expression in E. coli” value is listed as “not soluble”.

Take “MMPNEKITLKQLIDHCFDTTKTTIKQQIVFGAGKIENKNFNIVGTVEDTSFGVDESIEMARCILDIIKNNNTDPIVLLTDVAGQKLAVRDEWLGMYAYFAHLLKCLHLARQNGNKIITLIYNQAIGGSFIAFGMMADRIYALKNAKLAVMWLEGMSKVTKIDIDVLRKISETSPVFAPGVENFKKLGGLHQVLDLDEVSQQLLLTLQEPNISHDNRAELGKQYGGRKEAYDIIKAIENL”: the “soluble on expression in E. coli” value is reported as “not soluble”. In the case of “MELKNKKWTDEEFHKQREEVLQQWPTGKEVDLQEAVDYLKKIPAEKNFAEKLVLAKKKGITMAQPRAGVALLDEHIELLRYLQDEGGADFLPSTIDAYTRQNRYDECENGIKESEKAGRSLLNGFPGVNFGVKGCRKVLEAVNLPLQARHGTPDSRLLAEIIHAGGWTSNEGGGISYNVPYAKNVTIEKSLLDWQYCDRLVGFYEEQGVHINREPFGPLTGTLVPPSMSNAVGITEALLAAEQGVKNITVGYGECGNMIQDIAALRCLEEQTNEYLKAYGYNDVFVTTVFHQWMGGFPQDESKAFGVIVTATTIAALAGATKVIVKTPHEAIGIPTKEANAAGIKATKMALNMLEGQRMPMSKELETEMAVIKAETKCILDKMFELGKGDLAIGTVKAFETGVMDIPFGPSKYNAGKMMPVRDNLGCVRYLEFGNVPFTEEIKNYNRERLQERAKFEGRDVSFQMVIDDIFAVGKGRLIGRPE”, the “soluble on expression in E. coli” value is recorded as “soluble”.
